# Laboratory results as given in patent US20210388110A1 (published 2021).
# Molecular target: T1, soluble human CD3ε chain (human, UniProt P07766 23-126, limits assumed)
# T1 construct: also called human CD3 epsilon chain
# Experiment: SPR (Biacore), soluble human CD3ε chain
# T1 sequence (P07766 23-126 limits assumed): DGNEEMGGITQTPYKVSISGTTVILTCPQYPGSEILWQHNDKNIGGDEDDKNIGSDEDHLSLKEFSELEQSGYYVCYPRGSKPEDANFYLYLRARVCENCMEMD
row,Kd [nM],Binder
1,124,"hCE115HA-E22Hh/none-Hi-Kn010G3/L0000-k0 (antibody, human IgG1, kappa, L234A L235A, N297A, one-arm antibody (single Fab) with Fab-less hinge-Fc chain Hi-Kn010G3) heavy: QVQLVESGGGVVQPGRSLRLSCAASGFTFSNAWMHWVRQAPGKGLEWVAQIKAKSNNYATYYAESVKGRFTISRDDSKNSLYLQMNSLKTEDTAVYYCRYVHYGAYYGVDAWGQGTTVTVSSASTKGPSVFPLAPSSKSTSGGTAALGCLVKDYFPEPVTVSWNSGALTSGVHTFPAVLQSSGLYSLSSVVTVPSSSLGTQTYICNVNHKPSNTKVDKKVEPKSCDKTHTCPPCPAPEAAGGPSVFLFPPKPKDTLMISRTPEVTCVVVDVSHEDPEVKFNWYVDGVEVHNAKTKPREEQYASTYRVVSVLTVLHQDWLNGKEYKCKVSNKALPAPIEKTISKAKGQPREPQVYTLPPSRCELTKNQVSLSCAVKGFYPSDIAVEWESNGQPENNYKTTPPVLDSDGSFFLVSKLTVDKSRWQQGNVFSCSVMHEALHNHYTQKSLSLSPDYKDDDDK EPKSSDKTHTCPPCPAPELLGGPSVFLFPPKPKDTLMISRTPEVTCVVVDVSHEDPEVKFNWYVDGVEVHNAKTKPREEQYNSTYRVVSVLTVLHQDWLNGKEYKCKVSNKALPAPIEKTISKAKGQPREPQVCTLPPSRDELTKNQVSLWCLVKGFYPSDIAVEWESNGQPENNYKTTPPVLDSDGSFFLYSKLTVDKSRWQQGNVFSCSVMHEALHNRYTQKSLSLSP light: DIVMTQSPLSLPVTPGEPASISCRSSQSLVHSNRNTYLHWYQQKPGQAPRLLIYKVSNRFSGVPDRFSGSGSGTDFTLKISRVEAEDVGVYYCGQGTQVPYTFGQGTKLEIKRTVAAPSVFIFPPSDEQLKSGTASVVCLLNNFYPREAKVQWKVDNALQSGNSQESVTEQDSKDSTYSLSSTLTLSKADYEKHKVYACEVTHQGLSSPVTKSFNRGEC"
2,108,"hCE115HAa-E22Hh/none-Hi-Kn010G3/L0000-k0 (antibody, human IgG1, kappa, L234A L235A, N297A, one-arm antibody (single Fab) with Fab-less hinge-Fc chain Hi-Kn010G3) heavy: QVQLVESGGGVVQPGGSLRLSCAASGFTFSNAWMHWVRQAPGKGLEWVAQIKAKSNNYATYYAESVKGRFTISRDDSKNSLYLQMNSLKTEDTAVYYCRYVHYGAYYGVDAWGQGTTVTVSSASTKGPSVFPLAPSSKSTSGGTAALGCLVKDYFPEPVTVSWNSGALTSGVHTFPAVLQSSGLYSLSSVVTVPSSSLGTQTYICNVNHKPSNTKVDKKVEPKSCDKTHTCPPCPAPEAAGGPSVFLFPPKPKDTLMISRTPEVTCVVVDVSHEDPEVKFNWYVDGVEVHNAKTKPREEQYASTYRVVSVLTVLHQDWLNGKEYKCKVSNKALPAPIEKTISKAKGQPREPQVYTLPPSRCELTKNQVSLSCAVKGFYPSDIAVEWESNGQPENNYKTTPPVLDSDGSFFLVSKLTVDKSRWQQGNVFSCSVMHEALHNHYTQKSLSLSPDYKDDDDK EPKSSDKTHTCPPCPAPELLGGPSVFLFPPKPKDTLMISRTPEVTCVVVDVSHEDPEVKFNWYVDGVEVHNAKTKPREEQYNSTYRVVSVLTVLHQDWLNGKEYKCKVSNKALPAPIEKTISKAKGQPREPQVCTLPPSRDELTKNQVSLWCLVKGFYPSDIAVEWESNGQPENNYKTTPPVLDSDGSFFLYSKLTVDKSRWQQGNVFSCSVMHEALHNRYTQKSLSLSP light: DIVMTQSPLSLPVTPGEPASISCRSSQSLVHSNRNTYLHWYQQKPGQAPRLLIYKVSNRFSGVPDRFSGSGSGTDFTLKISRVEAEDVGVYYCGQGTQVPYTFGQGTKLEIKRTVAAPSVFIFPPSDEQLKSGTASVVCLLNNFYPREAKVQWKVDNALQSGNSQESVTEQDSKDSTYSLSSTLTLSKADYEKHKVYACEVTHQGLSSPVTKSFNRGEC"
